From PMC8593141 come the findings set out here.

The assay has as its target mouse Kv4.2 channel with GFP fused to the C-terminus (Kv4.2g) (mouse) (UniProt Q9Z0V2). The assay is described as follows: co-IP; anti-GFP IP (Pierce Classic Magnetic IP/Co-IP kit, overnight 4°C, lysis buffer with 20 mM NEM and protease inhibitors) from lysates (0.5 mg protein) of HEK cells expressing Kv4.2g + HA-KChIP2a + HA-DPP10c, with or without co-transfected SUMO2 + Ubc9; blot for α-adaptin, stripped and re-probed for Kv4.2g; OD α-adaptin ÷ OD Kv4.2g.
Sequence of UniProt Q9Z0V2 (Q9Z0V2 whole entry, the tested form may be a part): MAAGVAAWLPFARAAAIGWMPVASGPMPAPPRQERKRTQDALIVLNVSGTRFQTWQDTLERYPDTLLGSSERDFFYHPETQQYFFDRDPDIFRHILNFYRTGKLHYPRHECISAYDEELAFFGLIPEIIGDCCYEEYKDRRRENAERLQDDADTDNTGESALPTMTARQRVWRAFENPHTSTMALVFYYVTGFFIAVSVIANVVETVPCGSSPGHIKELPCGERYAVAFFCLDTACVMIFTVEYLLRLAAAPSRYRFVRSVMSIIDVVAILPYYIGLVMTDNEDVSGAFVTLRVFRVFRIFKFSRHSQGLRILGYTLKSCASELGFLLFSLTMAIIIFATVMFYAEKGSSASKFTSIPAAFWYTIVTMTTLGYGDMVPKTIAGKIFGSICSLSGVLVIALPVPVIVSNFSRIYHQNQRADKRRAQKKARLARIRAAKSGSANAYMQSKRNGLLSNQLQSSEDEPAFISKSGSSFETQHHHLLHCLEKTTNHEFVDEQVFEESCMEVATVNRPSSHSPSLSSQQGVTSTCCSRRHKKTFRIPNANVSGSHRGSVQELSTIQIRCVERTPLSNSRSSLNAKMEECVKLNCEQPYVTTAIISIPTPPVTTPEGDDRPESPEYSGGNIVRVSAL

For the substance “α-adaptin subunit of adaptor protein 2 complex (AP2) (from UniProt O95782 1-977) (natural protein)”, the OD α-adaptin ÷ OD Kv4.2g in the anti-GFP IP (control, without SUMO2 + Ubc9) worked out at 0.02 and the OD α-adaptin ÷ OD Kv4.2g in the anti-GFP IP (with co-expressed SUMO2 + Ubc9) amounted to 0.02.
